The supplement of paper PMC9876800

Tested on: peptide library, one residue held at a place counted from the S/T acceptor
Experiment: relative phosphorylation of the sub-library (ratio to the mean residue at this position); human; higher = residue favoured
How it was run: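 Purified recombinant kinases (human or orthologue constructs) were incubated in 384-well plates with biotinylated degenerate peptide sub-libraries, each fixing one residue at one position around a central Ser/Thr. Peptides were at 50 μM, with 50 μM ATP spiked with γ-32P-ATP, for 90 min under kinase-specific conditions. Spots on streptavidin membranes were phosphorimaged and quantified by densitometry. Relative sub-library phosphorylation is a ratio to the mean residue at that position.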

Chain of EIF2AK1, construct: Full length (Q9BQI3 whole entry, looked up): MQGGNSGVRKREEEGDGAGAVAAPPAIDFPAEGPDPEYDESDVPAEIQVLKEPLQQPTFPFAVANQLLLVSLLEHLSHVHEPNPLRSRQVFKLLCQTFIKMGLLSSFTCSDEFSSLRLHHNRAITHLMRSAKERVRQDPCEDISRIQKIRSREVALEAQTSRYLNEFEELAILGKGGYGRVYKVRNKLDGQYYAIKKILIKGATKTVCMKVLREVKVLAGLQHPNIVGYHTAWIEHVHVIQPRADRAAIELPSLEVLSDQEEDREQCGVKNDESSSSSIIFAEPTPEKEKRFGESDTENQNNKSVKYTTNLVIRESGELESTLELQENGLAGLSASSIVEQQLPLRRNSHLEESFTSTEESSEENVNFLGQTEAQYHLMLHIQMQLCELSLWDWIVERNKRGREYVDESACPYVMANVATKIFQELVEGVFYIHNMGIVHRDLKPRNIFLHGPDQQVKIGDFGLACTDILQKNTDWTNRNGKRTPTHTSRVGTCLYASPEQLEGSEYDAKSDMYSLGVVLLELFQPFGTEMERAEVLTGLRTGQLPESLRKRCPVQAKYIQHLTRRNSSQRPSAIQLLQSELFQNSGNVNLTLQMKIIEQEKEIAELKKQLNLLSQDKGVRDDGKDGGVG
Chain of GRK2, construct: Full length (P25098 whole entry, looked up): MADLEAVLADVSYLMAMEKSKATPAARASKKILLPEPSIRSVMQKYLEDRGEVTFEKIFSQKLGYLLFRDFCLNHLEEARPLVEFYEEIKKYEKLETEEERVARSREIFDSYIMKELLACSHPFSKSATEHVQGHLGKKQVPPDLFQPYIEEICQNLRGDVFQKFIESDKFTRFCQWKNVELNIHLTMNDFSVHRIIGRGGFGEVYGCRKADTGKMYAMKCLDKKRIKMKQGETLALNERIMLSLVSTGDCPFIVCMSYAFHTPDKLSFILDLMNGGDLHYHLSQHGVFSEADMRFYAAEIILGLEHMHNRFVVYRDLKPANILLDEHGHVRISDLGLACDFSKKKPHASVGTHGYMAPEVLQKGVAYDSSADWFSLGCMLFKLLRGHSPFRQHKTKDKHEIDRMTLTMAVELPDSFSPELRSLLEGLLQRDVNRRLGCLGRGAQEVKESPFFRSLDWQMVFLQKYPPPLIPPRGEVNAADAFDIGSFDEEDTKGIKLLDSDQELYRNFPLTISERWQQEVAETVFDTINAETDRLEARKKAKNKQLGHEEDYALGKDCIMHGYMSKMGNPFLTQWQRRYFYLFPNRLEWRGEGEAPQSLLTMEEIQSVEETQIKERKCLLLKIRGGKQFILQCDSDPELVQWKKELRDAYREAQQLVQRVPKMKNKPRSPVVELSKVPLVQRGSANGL
Chain of GRK5, construct: Full length (P34947 whole entry, looked up): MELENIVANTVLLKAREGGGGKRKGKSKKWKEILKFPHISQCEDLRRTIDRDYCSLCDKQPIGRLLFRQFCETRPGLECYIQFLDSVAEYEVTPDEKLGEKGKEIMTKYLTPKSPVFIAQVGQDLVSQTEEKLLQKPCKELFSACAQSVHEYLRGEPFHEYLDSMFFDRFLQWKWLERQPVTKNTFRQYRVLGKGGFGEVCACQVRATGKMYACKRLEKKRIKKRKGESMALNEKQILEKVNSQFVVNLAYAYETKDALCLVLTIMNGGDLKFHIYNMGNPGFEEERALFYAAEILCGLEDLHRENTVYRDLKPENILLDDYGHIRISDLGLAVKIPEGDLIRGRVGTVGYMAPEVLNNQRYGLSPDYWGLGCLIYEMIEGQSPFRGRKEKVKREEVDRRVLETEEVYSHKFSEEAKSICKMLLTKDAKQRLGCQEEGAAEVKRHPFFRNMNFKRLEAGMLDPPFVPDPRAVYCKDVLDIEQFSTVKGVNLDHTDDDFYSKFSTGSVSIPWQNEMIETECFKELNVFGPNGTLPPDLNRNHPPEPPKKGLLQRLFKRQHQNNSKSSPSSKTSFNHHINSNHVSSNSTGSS
Chain of GRK7, construct: Full length (Q8WTQ7 whole entry, looked up): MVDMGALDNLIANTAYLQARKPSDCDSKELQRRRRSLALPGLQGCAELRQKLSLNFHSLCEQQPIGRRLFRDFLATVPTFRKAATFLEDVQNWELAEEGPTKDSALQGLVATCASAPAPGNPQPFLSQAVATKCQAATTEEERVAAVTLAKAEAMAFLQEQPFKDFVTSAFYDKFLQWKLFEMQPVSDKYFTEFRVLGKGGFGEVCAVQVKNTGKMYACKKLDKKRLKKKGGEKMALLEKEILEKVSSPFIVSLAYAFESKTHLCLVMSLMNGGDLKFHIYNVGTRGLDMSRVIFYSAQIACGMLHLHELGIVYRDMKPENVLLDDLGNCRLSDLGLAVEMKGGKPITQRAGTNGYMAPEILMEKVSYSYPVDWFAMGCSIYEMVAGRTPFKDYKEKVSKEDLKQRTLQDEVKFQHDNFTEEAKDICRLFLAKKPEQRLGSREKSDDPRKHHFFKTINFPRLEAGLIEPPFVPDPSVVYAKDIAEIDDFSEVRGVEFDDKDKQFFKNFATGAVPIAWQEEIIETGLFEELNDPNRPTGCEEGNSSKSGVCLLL

EIF2AK1, construct: Full length (from UniProt Q9BQI3)
relative phosphorylation
Conditions | at +1 | at +2 | at +3 | at +4 | at -1 | at -2 | at -3 | at -4 | at -5
A fixed | 0.697 | 0.999 | 0.699 | 0.762 | 0.698 | 0.907 | 1.04 | 0.971 | 0.979
D fixed | 0.365 | 0.489 | 0.403 | 0.602 | 1.26 | 3.35 | 1.11 | 0.87 | 0.672
E fixed | 0.358 | 0.382 | 0.388 | 0.565 | 1.01 | 2.47 | 0.857 | 0.724 | 0.619
F fixed | 1.5 | 0.874 | 1.3 | 0.975 | 1.09 | 0.752 | 0.955 | 1.15 | 1.31
G fixed | 1.21 | 0.923 | 1.09 | 0.945 | 0.469 | 0.846 | 0.936 | 0.89 | 0.897
H fixed | 0.788 | 1.24 | 1.12 | 1.01 | 1.56 | 1.1 | 1.04 | 1.03 | 0.962
I fixed | 1.24 | 0.954 | 0.788 | 0.809 | 1.19 | 0.606 | 1.09 | 1.1 | 1.29
K fixed | 0.975 | 1.74 | 1.59 | 1.49 | 0.796 | 0.648 | 0.864 | 0.998 | 1
L fixed | 1.08 | 0.747 | 0.904 | 0.936 | 1.15 | 0.56 | 1.07 | 1.06 | 1.08
M fixed | 1.77 | 0.895 | 0.938 | 0.893 | 1.16 | 0.726 | 1.29 | 1.07 | 1.04
N fixed | 0.991 | 1.12 | 0.808 | 0.964 | 1.14 | 0.783 | 0.904 | 0.826 | 0.728
P fixed | 0.293 | 0.692 | 0.917 | 0.893 | 0.374 | 0.581 | 0.695 | 0.73 | 0.79
Q fixed | 1.02 | 0.889 | 0.77 | 0.923 | 0.761 | 0.809 | 0.842 | 0.751 | 0.696
R fixed | 1.79 | 1.99 | 2.1 | 1.9 | 1.07 | 0.73 | 0.958 | 1.03 | 1.16
V fixed | 0.705 | 0.903 | 0.733 | 0.612 | 1.07 | 0.58 | 0.731 | 0.93 | 1.06
W fixed | 1.02 | 0.918 | 1.26 | 1.57 | 0.731 | 0.787 | 1.23 | 1.59 | 1.44
Y fixed | 1.2 | 1.25 | 1.19 | 1.15 | 1.46 | 0.764 | 1.38 | 1.28 | 1.27
pThr fixed | 0.374 | 0.484 | 0.489 | 0.601 | 0.504 | 0.816 | 0.761 | 0.647 | 0.631
pTyr fixed | 0.536 | 0.481 | 0.569 | 0.607 | 2.17 | 0.943 | 0.981 | 0.732 | 0.792

GRK2, construct: Full length (from UniProt P25098)
relative phosphorylation
Conditions | at +1 | at +2 | at +3 | at +4 | at -1 | at -2 | at -3 | at -4 | at -5
A fixed | 0.812 | 1.17 | 0.782 | 0.874 | 0.876 | 0.822 | 1.03 | 0.901 | 0.914
D fixed | 1.1 | 0.929 | 1.42 | 1.35 | 1.14 | 1.38 | 1.9 | 1.41 | 1.34
E fixed | 1.47 | 0.883 | 1.37 | 1.25 | 1.34 | 3.01 | 2.28 | 1.54 | 1.13
F fixed | 1.27 | 1.18 | 1.13 | 1.02 | 1.02 | 0.961 | 0.768 | 0.915 | 1.14
G fixed | 0.766 | 0.755 | 0.817 | 0.928 | 0.726 | 0.718 | 0.766 | 0.897 | 0.839
H fixed | 0.977 | 1.09 | 1.02 | 1.07 | 1.06 | 0.813 | 0.831 | 0.969 | 0.931
I fixed | 1.03 | 1.18 | 0.892 | 0.892 | 0.862 | 0.724 | 0.732 | 0.847 | 0.898
K fixed | 0.79 | 0.747 | 0.778 | 0.84 | 0.919 | 0.741 | 0.815 | 0.965 | 0.912
L fixed | 0.883 | 0.886 | 1.01 | 0.935 | 0.928 | 0.832 | 0.742 | 0.899 | 0.88
M fixed | 1.08 | 0.965 | 0.981 | 0.975 | 0.971 | 0.872 | 0.8 | 0.951 | 0.931
N fixed | 0.879 | 0.969 | 0.996 | 1.07 | 1.04 | 0.926 | 0.924 | 0.99 | 0.95
P fixed | 0.791 | 0.627 | 0.765 | 0.926 | 1.24 | 0.931 | 0.864 | 0.975 | 0.896
Q fixed | 1.12 | 0.872 | 0.939 | 0.994 | 0.978 | 0.928 | 0.889 | 0.944 | 0.91
R fixed | 0.838 | 0.768 | 0.791 | 0.843 | 0.979 | 0.974 | 1.43 | 0.998 | 1.04
V fixed | 1.15 | 1.37 | 0.855 | 0.854 | 0.911 | 0.701 | 0.665 | 0.813 | 0.918
W fixed | 1.04 | 1.3 | 1.25 | 1.18 | 0.876 | 0.832 | 0.789 | 1.06 | 1.19
Y fixed | 1.01 | 1.31 | 1.22 | 0.998 | 1.12 | 0.843 | 0.787 | 0.932 | 1.18
pThr fixed | 7.25 | 1.18 | 1.22 | 1.95 | 1.18 | 3.63 | 3.44 | 2.09 | 1.27
pTyr fixed | 2.37 | 1.57 | 1.47 | 1.62 | 2.11 | 14.3 | 3.56 | 2.58 | 1.57

GRK5, construct: Full length (from UniProt P34947)
relative phosphorylation
Conditions | at +1 | at +2 | at +3 | at +4 | at -1 | at -2 | at -3 | at -4 | at -5
A fixed | 0.822 | 1.35 | 0.828 | 0.969 | 0.728 | 0.802 | 0.852 | 1.03 | 1.06
D fixed | 0.996 | 1.03 | 1.73 | 1.58 | 1.08 | 0.951 | 1.27 | 1.28 | 1.27
E fixed | 2.19 | 0.721 | 1.96 | 1.25 | 0.863 | 1.01 | 1.19 | 1.15 | 1.05
F fixed | 0.966 | 0.879 | 1.06 | 0.823 | 0.867 | 1.67 | 0.85 | 0.912 | 0.967
G fixed | 0.768 | 1.06 | 0.998 | 0.976 | 0.694 | 0.932 | 1.02 | 1.08 | 1.16
H fixed | 0.895 | 0.953 | 1.05 | 0.964 | 1.7 | 0.88 | 1.17 | 0.932 | 1.03
I fixed | 1.01 | 1.15 | 0.61 | 0.762 | 0.732 | 0.735 | 0.828 | 0.863 | 0.892
K fixed | 0.804 | 0.947 | 0.767 | 1.04 | 0.909 | 0.871 | 0.788 | 0.831 | 0.861
L fixed | 0.81 | 0.735 | 0.717 | 0.662 | 0.874 | 0.765 | 0.707 | 0.891 | 0.82
M fixed | 1.04 | 0.841 | 0.724 | 0.723 | 0.829 | 0.738 | 0.792 | 0.887 | 0.817
N fixed | 0.888 | 0.905 | 0.721 | 0.911 | 1.19 | 0.889 | 1.04 | 0.984 | 0.94
P fixed | 0.564 | 0.73 | 0.997 | 1.48 | 0.986 | 0.838 | 0.977 | 1.19 | 1.02
Q fixed | 1.21 | 0.74 | 0.808 | 1.01 | 0.872 | 0.737 | 0.867 | 0.85 | 0.789
R fixed | 1.13 | 1.12 | 0.927 | 0.899 | 1.12 | 1.05 | 1.04 | 0.87 | 0.806
V fixed | 1.06 | 1.51 | 0.705 | 0.867 | 1.07 | 0.751 | 1.5 | 0.955 | 1.06
W fixed | 0.944 | 1.3 | 1.35 | 1.1 | 0.933 | 2.08 | 1.13 | 1.23 | 1.32
Y fixed | 0.898 | 1.03 | 1.06 | 0.982 | 1.55 | 1.3 | 0.969 | 1.08 | 1.13
pThr fixed | 2.07 | 0.82 | 1.27 | 2.47 | 0.587 | 1.43 | 2.65 | 1.75 | 1.36
pTyr fixed | 2.19 | 0.868 | 1.08 | 1.37 | 0.964 | 2.77 | 2.56 | 2.29 | 1.88

GRK7, construct: Full length (from UniProt Q8WTQ7)
relative phosphorylation
Conditions | at +1 | at +2 | at +3 | at +4 | at -1 | at -2 | at -3 | at -4 | at -5
A fixed | 0.839 | 1.23 | 0.77 | 1.09 | 0.809 | 0.805 | 0.636 | 0.878 | 0.87
D fixed | 0.701 | 0.93 | 1.85 | 1.55 | 1.57 | 3.03 | 2.12 | 2.48 | 2.26
E fixed | 2.1 | 0.894 | 4.35 | 1.69 | 1.31 | 2.43 | 1.75 | 1.9 | 2.03
F fixed | 1.46 | 0.843 | 0.513 | 0.682 | 0.512 | 0.624 | 0.474 | 0.516 | 0.621
G fixed | 0.823 | 1.15 | 0.924 | 1.1 | 1.7 | 1.13 | 1.24 | 1.04 | 1.34
H fixed | 0.927 | 1.21 | 0.851 | 1.08 | 1.1 | 0.573 | 0.673 | 0.699 | 0.883
I fixed | 0.765 | 1.11 | 0.372 | 0.799 | 0.495 | 0.533 | 0.499 | 0.553 | 0.729
K fixed | 0.58 | 1.02 | 1.54 | 1.05 | 1.47 | 0.693 | 1.44 | 0.738 | 0.838
L fixed | 0.907 | 0.921 | 0.581 | 0.818 | 0.621 | 0.548 | 0.534 | 0.54 | 0.589
M fixed | 0.899 | 0.689 | 0.401 | 0.658 | 0.53 | 0.572 | 0.493 | 0.58 | 0.678
N fixed | 0.704 | 1.15 | 0.604 | 0.726 | 1.66 | 0.956 | 1.16 | 0.872 | 0.96
P fixed | 0.826 | 1.2 | 0.999 | 1.43 | 1.26 | 1.71 | 1.89 | 2.61 | 1.16
Q fixed | 1.08 | 0.88 | 0.896 | 0.926 | 1.22 | 0.687 | 0.794 | 0.728 | 0.73
R fixed | 0.56 | 1.02 | 0.848 | 0.792 | 0.891 | 0.762 | 1.58 | 0.798 | 0.955
V fixed | 0.654 | 1.07 | 0.415 | 0.894 | 0.629 | 0.589 | 0.544 | 0.754 | 0.751
W fixed | 1.93 | 0.822 | 0.572 | 0.758 | 0.513 | 0.614 | 0.554 | 0.702 | 0.858
Y fixed | 1.25 | 0.868 | 0.515 | 0.975 | 0.717 | 0.737 | 0.623 | 0.61 | 0.753
pThr fixed | 2.52 | 1.05 | 1.66 | 3.54 | 1.01 | 3.79 | 2.48 | 2.06 | 1.5
pTyr fixed | 7.56 | 1.29 | 1.41 | 1.9 | 2.83 | 3.58 | 2.14 | 1.9 | 1.67
